Measured values as given in paper PMC9442473, “Centriole growth is limited by the Cdk/Cyclin-dependent phosphorylation of Ana2/STIL” (The Journal of Cell Biology, 2022).

Biological target: the molecule itself
Assay: fluorescence correlation spectroscopy (FCS), photon-count rate per molecule (CPM); point FCS in the cytoplasm of living syncytial embryos at the beginning of nuclear cycle 12, 25.0-26.0°C; CPM compared with monomeric (mNG) and dimeric (dNG) NeonGreen controls

B1: Ana2-mNG (natural protein, Drosophila melanogaster, UniProt Q9XZ31 1-420, looked up)
chain: MFVPETEDMLPRLAPRPSAAVPMGHTNEIIGPTVPEVSILFGQPPQDPQMQPQQPNHAHQESSPRAAPTFASWKKQMLPRVNFSPILATELGPRTAPSSNSPCSSKEYQVMPRDRNYASDAQQTTNHMNCNAGGYNAEPKQQAYQSRRLSSSSNADVLTICAGTQTDPFNPSPPRKSLPQVVYSDIDVSNLANKSDLAALVSLVESVRHEQQQLRNLCEMILEQQQRAKPEAISKASSTTGTQCDILTTNQAGRRLSPIMQDYIAEEEEPLPPPQARVIPQFPSPRPHPPIAQSTGYRANTPQAKRIPQLAKPNTEKSMVMNELALKYLRQPVDELMKDMRLGASPKSPNPEPLRPIDNIGHAQSPNDISNASYKYLKKYRLLPEEQLEPVCPQSPMAATAPSPHIQLDLENIRNQPKLL
notes: Ana2 (fly homologue of STIL), Drosophila melanogaster; mNG with a short linker knocked in at the C-terminus of the endogenous locus; The protein appeared overexpressed about 2-4X against the untagged one; also called Ana2/STIL; WT Ana2-mNG; source: CRISPR/Cas9 knock-in at the endogenous locus, in the cytoplasm of living Drosophila syncytial embryos; not shown: mNeonGreen (mNG), C-terminal, kept
How did the “stoichiometry N” value turn out when B1 was run?
The value was about 2.

B2: mNG-Ana2 (natural protein, Drosophila melanogaster, UniProt Q9XZ31 1-420, looked up)
chain: MFVPETEDMLPRLAPRPSAAVPMGHTNEIIGPTVPEVSILFGQPPQDPQMQPQQPNHAHQESSPRAAPTFASWKKQMLPRVNFSPILATELGPRTAPSSNSPCSSKEYQVMPRDRNYASDAQQTTNHMNCNAGGYNAEPKQQAYQSRRLSSSSNADVLTICAGTQTDPFNPSPPRKSLPQVVYSDIDVSNLANKSDLAALVSLVESVRHEQQQLRNLCEMILEQQQRAKPEAISKASSTTGTQCDILTTNQAGRRLSPIMQDYIAEEEEPLPPPQARVIPQFPSPRPHPPIAQSTGYRANTPQAKRIPQLAKPNTEKSMVMNELALKYLRQPVDELMKDMRLGASPKSPNPEPLRPIDNIGHAQSPNDISNASYKYLKKYRLLPEEQLEPVCPQSPMAATAPSPHIQLDLENIRNQPKLL
notes: Ana2 (fly homologue of STIL), Drosophila melanogaster; mNG with a short linker knocked in at the N-terminus of the endogenous locus; also called Ana2/STIL; source: CRISPR/Cas9 knock-in at the endogenous locus, in the cytoplasm of living Drosophila syncytial embryos; not shown: mNeonGreen (mNG), N-terminal, kept
With B2 as the protein, how does the “stoichiometry N” value read?
Its value is about 2.
